In article doi:10.1101/2024.12.18.629124:

Experiments:
Assay in all cases: SPR
[1] = biological target: GST-Staufen FL (Drosophila melanogaster) (UniProt P25159)
[2] = biological target: Tm1 FL (Drosophila melanogaster)
[3] = biological target: Tm1 1-335 (Drosophila melanogaster)
[4] = biological target: Staufen dsRBD3-4-L4 (aa 578-951) (Drosophila melanogaster) (UniProt P25159)

Row | Kd [1] [nM] | Kd [4] [nM] | Substance | further results
1 | 13 | – | Khc-Tm1 complex (from UniProt P17210 1-975) | –
2 | – | – | Staufen dsRBD3-4-5-C-term (domain or fragment) | Kd [2]: 152 nM
3 | – | – | Staufen dsRBD3-4-L4 (aa 578-951) (from UniProt P25159 578-951) (domain or fragment) | Kd [3]: 224 nM
4 | – | 495 | Tm1 1-213 (domain or fragment) | –
5 | – | 1420 | Tm1 1-213 L93Y (domain or fragment) | –
6 | 386 | 262 | Tm1 1-335 (domain or fragment) | –
7 | 86.6 | – | Tm1 FL (natural protein) | –
